Results taken from the supplement of paper PMC12042874.
± gives the uncertainty stated by the source.

assay: amyloid nucleation score (Sup35N fusion, yeast selection) (log enrichment); library NNK2; higher = more nucleation; inactive = no reads after selection
Method in brief: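 Sup35N fusions to peptides of 20 random codons were expressed in psi-negative yeast, induced 24 hours with 100 μM copper sulfate, and grown 7 days at 30°C on medium lacking adenine and uracil. Input and output plasmid inserts were sequenced by Illumina. The nucleation score is the DiMSum log enrichment of output over input reads, centred on the mode score of non-aggregating sequences. Sequences with under 100 input reads were excluded.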

Row | Substance | amyloid nucleation score
1 | ESASTVTVCLRRVKVSHR | 5.204 ± 0.045
2 | KDGKALT | inactive
3 | GFLLCVSGVYLGCLLVNSSI | 0.488 ± 0.56
4 | ADRSVGGFNCVSFLYAVN | 4.02 ± 0.076
5 | HIFGNRYWYSFCCFLLLPRR | 7.691 ± 0.072
6 | YKNVFHNCILADSSVYWNTH | 5.764 ± 0.044
7 | NSFTLKCSKGVGYKALHLGT | 2.9 ± 0.097
8 | DFIMFLAGPNSVNYNVVLYF | 7.437 ± 0.055
9 | IVSSGPIKLNTSCFRTAYML | -0.854 ± 0.63
10 | RNEQMSPCITWVNYPDYLRT | 0.909 ± 0.6
11 | AGEYDLIFYLDFYMGNEVIS | 2.29 ± 0.13
12 | VQSTRIISCVLCLGDWLEDY | 10.19 ± 0.022
13 | VTRKTWFFVLCNQLFTLFAD | 6.975 ± 0.058
14 | VYTWNGRSWEYWTCPTLRNP | 0.371 ± 0.8
15 | FTLDNMSLQTRTLMRYE | -0.863 ± 0.49
16 | LFMRPCDLFEVVLSTVRLVW | 1.29 ± 0.52
17 | DGPNYILQVFCCMMVNVCGC | 7.609 ± 0.061
18 | MCMGFRRPLTRTFFRTLCAR | 0.684 ± 0.54
19 | DPPSSFEFMCLRLWV | 3.35 ± 0.085
20 | FITEDLVRAFANYVND | inactive
21 | ARLLTRNINESNRFI | 0.065 ± 0.28
22 | NSMSDLFSFSY | inactive
23 | HRDGLPVVTL | 0.034 ± 1.1
24 | LDPSVLMLWLFYRVQSLHVS | 0.008 ± 0.35
25 | GYGVAWLYGISDSVRLRAPY | 0.335 ± 0.42
26 | NFQMTVRYWVKDGVESQEIN | 4.192 ± 0.033

Row | Substance | amyloid nucleation score
27 | NLISKDIVLHWSRALC | 0.339 ± 0.56
28 | CTWDFNDHFMLVQNNDEQLW | 0.087 ± 0.79
29 | LTVLLSMK | -0.911 ± 0.5
30 | RSLCDL | -0.755 ± 0.54
31 | SQVSHLRLDVPVAEI | 4.04 ± 0.078
32 | RKCSGNAMRSLCSDPVRCVK | 0.669 ± 0.32
33 | KVECEVWVRWVRCDGCAAGK | 1.22 ± 0.2
34 | EELSIQRALLVCPKKEGFLE | 3.69 ± 0.082
35 | EIARLTNLDWTNISTFL | -0.698 ± 1.1
36 | LHFQYERSWNARSTLM | 4.08 ± 0.076
37 | RFRKSLGALALRRIVGSEAM | 1.53 ± 0.39
38 | YINSGV | inactive
39 | LYVCPSASWESCPGGIKRMG | inactive
40 | RRRTEGN | 0.304 ± 0.8
41 | CLMDCGLYFTGSNLRAMCTW | -0.223 ± 0.49
42 | MWTIIMGMVILPRNRNL | 3.8 ± 0.078
43 | SGLVVMRLLFLRGY | -0.558 ± 0.54
44 | LLYCYSLFVVSFDYTFHQRF | 6.15 ± 0.062
45 | GKLLLFSSWGRA | 0.083 ± 0.44
46 | NARICDTLVLKLLTVLLENG | 3.44 ± 0.12
47 | YICLAVGDVNGEMNYWVIRG | 6.865 ± 0.043
48 | SSFIRGLTSKAG | 1.05 ± 0.57
49 | FLLRIWTACVLFACKYRGIR | inactive
50 | RCSDVTDFNKM | 0.122 ± 1.1
51 | RSRSSFLHIFSSFKHISTR | -0.74 ± 1.1
52 | ITDGLYLTWGFDP | 0.931 ± 0.74

Row | Substance | amyloid nucleation score
53 | YQDSKRE | -0.833 ± 1.1
54 | NGADWATRRIWVSVRAVMGR | 0.513 ± 0.32
55 | MTYIRFPLMQGHFWIMSNSK | 0.181 ± 0.35
56 | VSRMYKHLSYMVLIYSPWRE | -0.315 ± 1
57 | VGILSRWLRGRFTVTRWLWC | -0.945 ± 1.1
58 | CSRGP | 0.534 ± 0.64
59 | CFSRIFICN | -0.075 ± 0.49
60 | LKNLGYNMSPMYHWHCSSSK | -0.003 ± 1.1
61 | LHGVSAIMLGTIGARVN | -0.125 ± 0.49
62 | YLAFSMEHAGCLHHRVSGIM | 5.46 ± 0.084
63 | LSVCLAKPTCDVSF | 0.201 ± 0.33
64 | GVTFNADASTFRDACMARLG | 0.752 ± 0.48
65 | FCNNWDFF | 2.41 ± 0.14
66 | WCCMGDMISVKSLVWEPCVT | 3.17 ± 0.098
67 | MYRYSWHDVFCVSKCSEVS | inactive
68 | NMPMQSYTIMVWSLQGMAAG | 0.705 ± 0.56
69 | KYRTYPGVGIIGRVDSSLRT | 0.741 ± 0.51
70 | IYGSYVLDLVGVNLAGKGEN | -0.347 ± 1
71 | YCMNLKDSTLLILKQPARST | 7.045 ± 0.047
72 | RLVRVGYLGRKTQRRSCQKL | 0.686 ± 0.2
73 | VLFDF | 0.652 ± 0.56
74 | TPLYFRYVTIHYRGHVKVDV | 0.688 ± 0.81
75 | TDVFCLDKSVQTRILTEVAT | -0.439 ± 0.41
76 | MGCYFSSLSTTHKGAVDVQL | 0.13 ± 0.24
77 | LLVVCSNLQNKVCRRNPEVF | -1.79 ± 0.49
78 | DFDVEA | -0.176 ± 1.1

Row | Substance | amyloid nucleation score
79 | LAMLRS | 1.17 ± 0.34
80 | PEFGTDIPKSRRRKEGCRGG | 0.717 ± 0.23
81 | LVNSGKLVIPPAVSWWYNWF | -0.763 ± 0.37
82 | QMFVRCSQ | 0.705 ± 0.66
83 | HYLPT | -0.208 ± 0.35
84 | AFEFQYFIGGFRTRIMNCVF | inactive
85 | FYQVNLPSCLNSDDNRCS | inactive
86 | ILVMKFNSWLADEDRVRSVI | 1.21 ± 0.27
87 | YHFYMASYKAFKSGGVGTGG | -1.56 ± 1.1
88 | RVNNLLEKEGTSYGEFAYGL | 0.182 ± 0.45
89 | RNESHVNLLGFMLDRRPDRG | 4.37 ± 0.071
90 | IRNQWMQVSQVFSVSRAVET | 0.369 ± 0.3
91 | ARGGKLLSCFCSGWRLDHVR | 9.958 ± 0.051
92 | FMVQSVFTKLGPSQAFRVHP | -0.14 ± 1
93 | GLSCVFRMRIE | 6.266 ± 0.05
94 | GFEWSLSRIDLCSGFGLGAG | 1.24 ± 0.29
95 | DMSFQDIIMP | -0.931 ± 0.54
96 | FLVYTWSFRNSCRPDLKVVE | 0.126 ± 0.8
97 | SVSIPCNNCCRLLCRMFKLC | -0.716 ± 0.28
98 | NLHVHL | 3.64 ± 0.056
99 | LYRAGVAFVCTYFVNSGEF | 2.61 ± 0.13
100 | SELFQLIGILHSNLFGIYMF | -0.427 ± 0.74
101 | LKITRRSALV | 0.186 ± 0.76
102 | QSYWSWLKKVSRFVYPHTRS | 0.291 ± 0.26
103 | CNVHWGRL | 0.089 ± 0.8
104 | PLCFLVMGHGTRCVCRWNTG | -0.464 ± 0.63

Row | Substance | amyloid nucleation score
105 | YVENTGASCFGAYK | 2.25 ± 0.11
106 | KYGAPS | -0.029 ± 1.1
107 | LSNAFRLNYTLLYAFISYFH | -1.22 ± 0.76
108 | RVNMDAGVLSVHLEAVGFHM | 4.08 ± 0.057
109 | CMSRFGRCNFVHDTWMGFTR | 2.93 ± 0.1
110 | RGSVNCGLFLSRKSDASGRG | 0.234 ± 0.57
111 | IMEYAPLYFIMF | 4.16 ± 0.069
112 | FYGRCLTFTAHPSFSRFAR | 0.333 ± 0.61
113 | VNMIRRTINSGVYRWSFQLQ | 1.14 ± 0.54
114 | FDCRNIREMHTRVYNSCTHP | -0.266 ± 1
115 | DVNISASNEVALIASDRLLC | -0.149 ± 0.55
116 | FLLTKSRCLEVFA | 4.68 ± 0.065
117 | AYFTYDNANLFDPFTRYTIE | 0.073 ± 0.55
118 | SSMERCEHLQVLEAFLWSVE | 1.87 ± 0.16
119 | YYTPRWCFAYVSRLVWFLLP | inactive
120 | VFFVHSYND | inactive
121 | NRVLVLAVGHEKFIAKMRLT | 1.51 ± 0.46
122 | GRMNTLDTFLTMAISDDASF | -0.147 ± 0.46
123 | MCGKFNTSSCIEIYRDSEFM | -0.432 ± 0.23
124 | LSYTSDSRPAGF | -0.347 ± 1.1
125 | YAQWYDCTSSAEKRYKKVLS | -0.473 ± 0.31
126 | WARNEIYRRSTNKWPPMVRG | -0.014 ± 0.76
